The target of assay [1] is hGPC3-C fragment (AA359-580) (human) (UniProt P51654). Kind of assay: flow cytometry, intracellular staining of 293T cells transfected with hGPC3-C; gate set on untransfected cells.
Assay [2] shares this target. Kind of assay: flow cytometry, intracellular staining of 293 cells transfected with hGPC3-C; gate set on untransfected cells. On the technique in general: A flow cytometer gives signals particle by particle.

hGPC3-C fragment (AA359-580) (human), sequence (P51654 359-580 limits assumed, form in doubt): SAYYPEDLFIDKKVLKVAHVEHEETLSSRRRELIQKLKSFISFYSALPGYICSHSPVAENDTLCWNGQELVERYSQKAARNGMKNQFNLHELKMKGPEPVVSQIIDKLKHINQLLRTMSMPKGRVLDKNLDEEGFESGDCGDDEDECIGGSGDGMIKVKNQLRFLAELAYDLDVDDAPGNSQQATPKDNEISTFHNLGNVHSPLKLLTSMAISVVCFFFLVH

B1: mAb 12D7 (mouse hybridoma antibody) (antibody, V domains shown)
VH: QVQLQQPGSELVRPGASVKLSCKASGYTFTSYWMHWVKQRLGQGLEWIGNIYPGSGSTNYDEKFKSKGTLTVDTSSSTAYMHLSSLTSEDSAVYYCTRGDYDWVFAYWGQGTLVTVSA
VL: DIVMTQSQKFMSTSVGDRVSVTCKASQNVGTNVAWYQQKPGQSPKALIYSASYRYSGVPDRFTGSGSGTDFTLTISNVQSEDLAEYFCQQYNSYPLTFGAGTKLELKR
For B1, the % of events in gate M1 in assay [1] is 0.47%. This molecule yielded a % of cells in the positive gate in assay [2] of 0.92%.

B2: mAb 6G11 (mouse hybridoma antibody) (antibody, V domains shown)
VH: QVQLQQPGSELVRPGASVKLSCKASGYTFTSCWMHWVKQRPGQGLEWIGNIYPGYGNTNYDEKFKNKATLTVDTSSSTAYMQLSGLTSEDSAVYYCTRGSYLYAMDYWGQGTSVTVSS
VL: DIQMNQSPSSLSASLGDTITITCHASQNINVWLSWYQQKPGNIPKLLIYKASNLHTGVPSRFSGSGSGTGFTLTISSLQPEDIATYYCQQGQSYPWTFGGGTKLEIKR
Molecule B2 yielded a % of events in gate M1 in assay [1] of 4.03%. Besides, the % of cells in the positive gate in assay [2] was determined as 0.75%.

These data come from US20220288124A1.
